# Source: the supplement of paper PMC10065799, “High-throughput profiling of sequence recognition by tyrosine kinases and SH2 domains using bacterial peptide display” (eLife, 2023)
# Test system: c-Src
# Assay: phosphorylation enrichment, bacterial display (enrichment ratio); higher = better substrate or ligand; peptides without Tyr show the background
# 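Wherever SH2 binding enrichment of the phosphorylated peptide, bacterial display is given: peptide library displayed on the E. coli surface as eCPX fusions, selected cells deep-sequenced, score is each peptide's frequency after selection divided by its frequency in the input.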
# 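Wherever phosphorylation enrichment, bacterial display is given: 11-residue human phosphosite peptides and single-mutation variants displayed on the E. coli surface, counted by deep sequencing, each peptide's frequency after selection divided by its frequency in the unselected input library; frequency after pTyr selection over input frequency; kinase dosed for 20-30% of maximal phosphorylation in three min.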
row,Sequence,phosphorylation enrichment
1,IRNRDYDDIDD [TTYH2_Y424_T419I],0.491
2,PSDLLYILDIQ [ITGA2B_Y845],4.22
3,MDFRSYPREFG [RBM10_Y44_YF],0.431
4,LARDIYKNDFF [ROS1_Y2110_YF],2.29
5,RAADFYSQQMA [GBP6_Y334_YF],0.675
6,AYRRGYFDEEM [PLEC_Y2971],0.371
7,SAPDSYIGIGN [SLC38A4_Y27],0.437
8,LKEIHYPPYTD [ALDH3B2_Y362],0.917
9,IRKTEYPFSSE [ATP2C1_Y452_A450T],0.428
10,EKLQKYYRKNP [EHHADH_Y682_Q685K],0.482
11,YKIYRYTLNDN [FN1_Y1975_L1974R],0.415
12,CEETFYTMKMN [MASP2_Y401_V405M],2.6
13,VYLGAYDCFLP [SLC22A5_Y486_R488C],6.4
14,PTTMTYFPHFD [HBA1_Y43_K41M],0.754
15,KRFRIYHLATS [BRCA2_Y3009_YF],0.482
16,PPSGEYFGHCG [TRIP6_Y275_Q278H],0.509
17,RLLRGYRQDAY [HLA-A_Y137_F133L],0.537

row,Sequence,phosphorylation enrichment
1,STKPQYQPGEN [SRC_Y530_E527K],0.396
2,RRIHSYRGHVW [VHL_Y112_L116V],1.04
3,IDQDKYAVHFI [FLNA_Y2388_R2391H],0.433
4,TLERHYKELQA [SPTBN2_Y834_E835K],0.472
5,KRGIDYILWHM [FRMD1_Y225_R228W],0.414
6,KIVQDYLEKFF [MMP8_Y36_T32I_YF],0.556
7,TKDTIYKQPMF [GBA_Y451_F450I],0.6
8,IKRIAYEFVEM [ADA_Y84],0.383
9,EKAEVYGSENE [RIOK2_Y348],0.483
10,QEVLEYFMKQM [PIK3CA_Y1038_A1035V],0.963
11,VVEVTYDDVPI [FLNB_Y1308],1.3
12,ANVKWYRNGRE,0.485
13,HEEDNYIELIP [NWD2_Y566],1.3
14,HGQVNYEEFVQ [CALM2_Y139_D134H],0.803
15,KEDPEYKKKFR [FAM161A_Y278_E273K],0.502
16,GSERDYTFEEL [EIF2S2_Y174_YF],0.566

# Molecular target: Grb2 SH2 (UniProt P62993)
# Sequence (P62993 whole entry, looked up): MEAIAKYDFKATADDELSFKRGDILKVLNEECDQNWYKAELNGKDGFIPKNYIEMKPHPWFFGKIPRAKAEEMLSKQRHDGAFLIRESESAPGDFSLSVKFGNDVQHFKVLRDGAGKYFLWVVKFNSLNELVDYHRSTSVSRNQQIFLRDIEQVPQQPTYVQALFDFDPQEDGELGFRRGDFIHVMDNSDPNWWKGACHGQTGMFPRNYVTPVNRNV
# Assay: SH2 binding enrichment of the phosphorylated peptide, bacterial display (enrichment ratio); higher = better substrate or ligand; peptides without Tyr show the background
row,Sequence,SH2 binding enrichment
1,IRNRDYDDIDD [TTYH2_Y424_T419I],0.628
2,PSDLLYILDIQ [ITGA2B_Y845],1.19
3,MDFRSYPREFG [RBM10_Y44_YF],1.09
4,LARDIYKNDFF [ROS1_Y2110_YF],1.41
5,RAADFYSQQMA [GBP6_Y334_YF],0.69
6,AYRRGYFDEEM [PLEC_Y2971],0.573
7,SAPDSYIGIGN [SLC38A4_Y27],0.769
8,LKEIHYPPYTD [ALDH3B2_Y362],0.896
9,IRKTEYPFSSE [ATP2C1_Y452_A450T],0.928
10,EKLQKYYRKNP [EHHADH_Y682_Q685K],0.95
11,YKIYRYTLNDN [FN1_Y1975_L1974R],0.77
12,CEETFYTMKMN [MASP2_Y401_V405M],0.771
13,VYLGAYDCFLP [SLC22A5_Y486_R488C],1.1
14,PTTMTYFPHFD [HBA1_Y43_K41M],1.13
15,KRFRIYHLATS [BRCA2_Y3009_YF],1.05
16,PPSGEYFGHCG [TRIP6_Y275_Q278H],1.06
17,RLLRGYRQDAY [HLA-A_Y137_F133L],0.638

row,Sequence,SH2 binding enrichment
1,STKPQYQPGEN [SRC_Y530_E527K],0.833
2,RRIHSYRGHVW [VHL_Y112_L116V],0.578
3,IDQDKYAVHFI [FLNA_Y2388_R2391H],0.711
4,TLERHYKELQA [SPTBN2_Y834_E835K],0.773
5,KRGIDYILWHM [FRMD1_Y225_R228W],1.56
6,KIVQDYLEKFF [MMP8_Y36_T32I_YF],1.08
7,TKDTIYKQPMF [GBA_Y451_F450I],0.886
8,IKRIAYEFVEM [ADA_Y84],0.729
9,EKAEVYGSENE [RIOK2_Y348],0.825
10,QEVLEYFMKQM [PIK3CA_Y1038_A1035V],0.663
11,VVEVTYDDVPI [FLNB_Y1308],0.819
12,ANVKWYRNGRE,0.658
13,HEEDNYIELIP [NWD2_Y566],0.53
14,HGQVNYEEFVQ [CALM2_Y139_D134H],0.694
15,KEDPEYKKKFR [FAM161A_Y278_E273K],0.921
16,GSERDYTFEEL [EIF2S2_Y174_YF],0.897

# Molecular target: SHP2-C SH2
# Assay: as above
row,Sequence,SH2 binding enrichment
1,IRNRDYDDIDD [TTYH2_Y424_T419I],0.486
2,PSDLLYILDIQ [ITGA2B_Y845],0.492
3,MDFRSYPREFG [RBM10_Y44_YF],0.975
4,LARDIYKNDFF [ROS1_Y2110_YF],0.748
5,RAADFYSQQMA [GBP6_Y334_YF],0.691
6,AYRRGYFDEEM [PLEC_Y2971],0.91
7,SAPDSYIGIGN [SLC38A4_Y27],0.764
8,LKEIHYPPYTD [ALDH3B2_Y362],0.975
9,IRKTEYPFSSE [ATP2C1_Y452_A450T],0.807
10,EKLQKYYRKNP [EHHADH_Y682_Q685K],1.11
11,YKIYRYTLNDN [FN1_Y1975_L1974R],0.832
12,CEETFYTMKMN [MASP2_Y401_V405M],0.657
13,VYLGAYDCFLP [SLC22A5_Y486_R488C],1.36
14,PTTMTYFPHFD [HBA1_Y43_K41M],0.782
15,KRFRIYHLATS [BRCA2_Y3009_YF],1.18
16,PPSGEYFGHCG [TRIP6_Y275_Q278H],0.713
17,RLLRGYRQDAY [HLA-A_Y137_F133L],0.593

row,Sequence,SH2 binding enrichment
1,STKPQYQPGEN [SRC_Y530_E527K],1.09
2,RRIHSYRGHVW [VHL_Y112_L116V],0.25
3,IDQDKYAVHFI [FLNA_Y2388_R2391H],0.607
4,TLERHYKELQA [SPTBN2_Y834_E835K],0.593
5,KRGIDYILWHM [FRMD1_Y225_R228W],1.5
6,KIVQDYLEKFF [MMP8_Y36_T32I_YF],1.19
7,TKDTIYKQPMF [GBA_Y451_F450I],1.15
8,IKRIAYEFVEM [ADA_Y84],0.691
9,EKAEVYGSENE [RIOK2_Y348],0.567
10,QEVLEYFMKQM [PIK3CA_Y1038_A1035V],0.584
11,VVEVTYDDVPI [FLNB_Y1308],0.529
12,ANVKWYRNGRE,0.487
13,HEEDNYIELIP [NWD2_Y566],0.793
14,HGQVNYEEFVQ [CALM2_Y139_D134H],0.651
15,KEDPEYKKKFR [FAM161A_Y278_E273K],0.873
16,GSERDYTFEEL [EIF2S2_Y174_YF],0.583

# Molecular target: c-Src SH2
# Assay: as above
row,Sequence,SH2 binding enrichment
1,IRNRDYDDIDD [TTYH2_Y424_T419I],0.537
2,PSDLLYILDIQ [ITGA2B_Y845],0.571
3,MDFRSYPREFG [RBM10_Y44_YF],0.578
4,LARDIYKNDFF [ROS1_Y2110_YF],0.44
5,RAADFYSQQMA [GBP6_Y334_YF],0.506
6,AYRRGYFDEEM [PLEC_Y2971],0.463
7,SAPDSYIGIGN [SLC38A4_Y27],0.584
8,LKEIHYPPYTD [ALDH3B2_Y362],0.654
9,IRKTEYPFSSE [ATP2C1_Y452_A450T],0.587
10,EKLQKYYRKNP [EHHADH_Y682_Q685K],0.603
11,YKIYRYTLNDN [FN1_Y1975_L1974R],0.534
12,CEETFYTMKMN [MASP2_Y401_V405M],0.575
13,VYLGAYDCFLP [SLC22A5_Y486_R488C],0.992
14,PTTMTYFPHFD [HBA1_Y43_K41M],0.658
15,KRFRIYHLATS [BRCA2_Y3009_YF],1.24
16,PPSGEYFGHCG [TRIP6_Y275_Q278H],0.599
17,RLLRGYRQDAY [HLA-A_Y137_F133L],0.437

row,Sequence,SH2 binding enrichment
1,STKPQYQPGEN [SRC_Y530_E527K],0.417
2,RRIHSYRGHVW [VHL_Y112_L116V],0.396
3,IDQDKYAVHFI [FLNA_Y2388_R2391H],0.491
4,TLERHYKELQA [SPTBN2_Y834_E835K],0.493
5,KRGIDYILWHM [FRMD1_Y225_R228W],1.08
6,KIVQDYLEKFF [MMP8_Y36_T32I_YF],0.691
7,TKDTIYKQPMF [GBA_Y451_F450I],0.446
8,IKRIAYEFVEM [ADA_Y84],0.973
9,EKAEVYGSENE [RIOK2_Y348],0.618
10,QEVLEYFMKQM [PIK3CA_Y1038_A1035V],0.479
11,VVEVTYDDVPI [FLNB_Y1308],0.519
12,ANVKWYRNGRE,0.512
13,HEEDNYIELIP [NWD2_Y566],0.458
14,HGQVNYEEFVQ [CALM2_Y139_D134H],0.828
15,KEDPEYKKKFR [FAM161A_Y278_E273K],0.513
16,GSERDYTFEEL [EIF2S2_Y174_YF],0.537
